# Test results reported in patent US20150344570A1 (published 2015).
# T1: FcγRIIb (human, UniProt P31994 43-217)
# T1 construct: extracellular domain; Soluble extracellular domain with C-terminal His tag, used as analyte; also called FcgRIIb; CD32B; not shown: His tag at the C terminus
# T1 sequence (looked up): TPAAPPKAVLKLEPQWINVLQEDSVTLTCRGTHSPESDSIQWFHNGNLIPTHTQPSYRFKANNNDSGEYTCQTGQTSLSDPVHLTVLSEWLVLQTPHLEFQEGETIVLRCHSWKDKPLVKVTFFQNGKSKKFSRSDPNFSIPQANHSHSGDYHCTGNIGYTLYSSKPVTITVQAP
# B1: GpH7-A5/GpH7-B3 variant N325_19Q/GpL16-k0 (antibody, human IgG1, kappa)
# heavy 1: not shown
# heavy 2: not shown
# light: DIVMTQSPLSLPVTPGEPASISCQASESLVHSNRNTYLHWYLQKPGQSPQLLIYKVSNRFSGVPDRFSGSGSGTDFTLKISRVEAEDVGVYYCSQNTHVPPTFGQGTKVEIERTVAAPSVFIFPPSDEQLKSGTASVVCLLNNFYPREAKVQWKVDNALQSGNSQESVTEQDSKDSTYSLSSTLTLSKADYEKHKVYACEVTHQGLSSPVTKSFNRGEC
# notes: He Ab: mutation in one H chain only; also called He Ab
# B2: GpH7-A5/GpH7-B3 variant S298_09D/GpL16-k0 (antibody, human IgG1, kappa)
# heavy 1: not shown
# heavy 2: not shown
# light: B1 light
# notes: as for B1
# B3: GpH7-A5/GpH7-B3 variant S298_10E/GpL16-k0 (antibody, human IgG1, kappa)
# heavy 1: not shown
# heavy 2: not shown
# light: B1 light
# notes: as for B1
# B4: GpH7-A5/GpH7-B3 variant S298_11K/GpL16-k0 (antibody, human IgG1, kappa)
# heavy 1: not shown
# heavy 2: not shown
# light: B1 light
# notes: as for B1
# B5: GpH7-A5/GpH7-B3 variant S298_12R/GpL16-k0 (antibody, human IgG1, kappa)
# heavy 1: not shown
# heavy 2: not shown
# light: B1 light
# notes: as for B1
# B6: GpH7-A5/GpH7-B3 variant S298_14T/GpL16-k0 (antibody, human IgG1, kappa)
# heavy 1: not shown
# heavy 2: not shown
# light: B1 light
# notes: as for B1
# B7: GpH7-A5/GpH7-B3 variant S298_15Y/GpL16-k0 (antibody, human IgG1, kappa)
# heavy 1: not shown
# heavy 2: not shown
# light: B1 light
# notes: as for B1
# B8: GpH7-A5/GpH7-B3 variant S298_16H/GpL16-k0 (antibody, human IgG1, kappa)
# heavy 1: not shown
# heavy 2: not shown
# light: B1 light
# notes: as for B1
# B9: GpH7-A5/GpH7-B3 variant S298_18N/GpL16-k0 (antibody, human IgG1, kappa)
# heavy 1: not shown
# heavy 2: not shown
# light: B1 light
# notes: as for B1
# B10: GpH7-A5/GpH7-B3 variant S298_19Q/GpL16-k0 (antibody, human IgG1, kappa)
# heavy 1: not shown
# heavy 2: not shown
# light: B1 light
# notes: as for B1
# B11: GpH7-A5/GpH7-B3 variant S298_20W/GpL16-k0 (antibody, human IgG1, kappa)
# heavy 1: not shown
# heavy 2: not shown
# light: B1 light
# notes: as for B1
# B12: GpH7-A5/GpH7-B3 variant S324_01G/GpL16-k0 (antibody, human IgG1, kappa)
# heavy 1: not shown
# heavy 2: not shown
# light: B1 light
# notes: as for B1
# B13: GpH7-A5/GpH7-B3 variant S324_02A/GpL16-k0 (antibody, human IgG1, kappa)
# heavy 1: not shown
# heavy 2: not shown
# light: B1 light
# notes: as for B1
# B14: GpH7-A5/GpH7-B3 variant S324_09D/GpL16-k0 (antibody, human IgG1, kappa)
# heavy 1: not shown
# heavy 2: not shown
# light: B1 light
# notes: as for B1
# B15: GpH7-A5/GpH7-B3 variant S324_10E/GpL16-k0 (antibody, human IgG1, kappa)
# heavy 1: not shown
# heavy 2: not shown
# light: B1 light
# notes: as for B1
# B16: GpH7-A5/GpH7-B3 variant S324_11K/GpL16-k0 (antibody, human IgG1, kappa)
# heavy 1: not shown
# heavy 2: not shown
# light: B1 light
# notes: as for B1
# B17: GpH7-A5/GpH7-B3 variant S324_12R/GpL16-k0 (antibody, human IgG1, kappa)
# heavy 1: not shown
# heavy 2: not shown
# light: B1 light
# notes: as for B1
# B18: GpH7-A5/GpH7-B3 variant S324_14T/GpL16-k0 (antibody, human IgG1, kappa)
# heavy 1: not shown
# heavy 2: not shown
# light: B1 light
# notes: as for B1
# B19: GpH7-A5/GpH7-B3 variant S324_15Y/GpL16-k0 (antibody, human IgG1, kappa)
# heavy 1: not shown
# heavy 2: not shown
# light: B1 light
# notes: as for B1
# B20: GpH7-A5/GpH7-B3 variant S324_16H/GpL16-k0 (antibody, human IgG1, kappa)
# heavy 1: not shown
# heavy 2: not shown
# light: B1 light
# notes: as for B1
# B21: GpH7-A5/GpH7-B3 variant S324_18N/GpL16-k0 (antibody, human IgG1, kappa)
# heavy 1: not shown
# heavy 2: not shown
# light: B1 light
# notes: as for B1
# B22: GpH7-A5/GpH7-B3 variant S324_19Q/GpL16-k0 (antibody, human IgG1, kappa)
# heavy 1: not shown
# heavy 2: not shown
# light: B1 light
# notes: as for B1
# B23: GpH7-A5/GpH7-B3 variant S324_20W/GpL16-k0 (antibody, human IgG1, kappa)
# heavy 1: not shown
# heavy 2: not shown
# light: B1 light
# notes: as for B1
# Target: T1, FcγRIIb
# Assay: SPR (Biacore), captured antibody, FcγR as analyte, relative binding
# Description: (§1) The heterodimerized antibodies He Abs in which one of the H chains was introduced with an alteration were assayed for their binding activities to each activating FcγR and inhibitory FcγR according to the method described in Example 4. […] The activating FcγRs in FIGS. 26, 27, 28, and 29 are FcγRIa, FcγRIIa (R), FcγRIIa (H), and FcγRIIIa, respectively.
# (§2) Analysis of interaction between objective antibody and the FcγR was carried out using Biacore T100 (GE Healthcare). HBS-EP+ (GE Healthcare) was used as the running buffer, and the measurement temperature was set to 25° C. Chips produced by immobilizing the antigen peptide by the amine coupling method to a Series S Sencor Chip CM5 (GE Healthcare), or alternatively, chips produced by allowing preliminarily biotinylated antigen peptides to interact with and immobilize onto a Series S Sensor Chip SA (certified) (GE Healthcare) were used. Antibodies of interest were captured onto an antigen peptide-immobilized chip, and allowed to interact to each FcγR diluted with running buffer. To regenerate and repeatedly use the chip, the antibodies captured on the chip were washed off by reacting 10 mM glycine-HCl, pH 1.5.
row,Binder,He/Con_2b
1,B1,69.1 % of GpH7-A5/GpH7-B3/GpL16-k0
2,B2,48.3 % of GpH7-A5/GpH7-B3/GpL16-k0
3,B3,47.6 % of GpH7-A5/GpH7-B3/GpL16-k0
4,B4,61.3 % of GpH7-A5/GpH7-B3/GpL16-k0
5,B5,57.8 % of GpH7-A5/GpH7-B3/GpL16-k0
6,B6,77.9 % of GpH7-A5/GpH7-B3/GpL16-k0
7,B7,61.4 % of GpH7-A5/GpH7-B3/GpL16-k0
8,B8,63.5 % of GpH7-A5/GpH7-B3/GpL16-k0
9,B9,48.1 % of GpH7-A5/GpH7-B3/GpL16-k0
10,B10,73.3 % of GpH7-A5/GpH7-B3/GpL16-k0
11,B11,41.1 % of GpH7-A5/GpH7-B3/GpL16-k0
12,B12,81.1 % of GpH7-A5/GpH7-B3/GpL16-k0
13,B13,78.3 % of GpH7-A5/GpH7-B3/GpL16-k0
14,B14,85.8 % of GpH7-A5/GpH7-B3/GpL16-k0
15,B15,77.4 % of GpH7-A5/GpH7-B3/GpL16-k0
16,B16,68.6 % of GpH7-A5/GpH7-B3/GpL16-k0
17,B17,63.1 % of GpH7-A5/GpH7-B3/GpL16-k0
18,B18,88.4 % of GpH7-A5/GpH7-B3/GpL16-k0
19,B19,88.2 % of GpH7-A5/GpH7-B3/GpL16-k0
20,B20,83.5 % of GpH7-A5/GpH7-B3/GpL16-k0
21,B21,81.1 % of GpH7-A5/GpH7-B3/GpL16-k0
22,B22,66.8 % of GpH7-A5/GpH7-B3/GpL16-k0
23,B23,87.5 % of GpH7-A5/GpH7-B3/GpL16-k0

# Target: T2, FcγRIa (human, UniProt P12314 16-292)
# T2 construct: extracellular domain; Soluble extracellular domain with C-terminal His tag, used as analyte; also called FcgRI; CD64; not shown: His tag at the C terminus
# Assay: as above
# Description: as §1, §2
# T2 sequence (P12314 16-292): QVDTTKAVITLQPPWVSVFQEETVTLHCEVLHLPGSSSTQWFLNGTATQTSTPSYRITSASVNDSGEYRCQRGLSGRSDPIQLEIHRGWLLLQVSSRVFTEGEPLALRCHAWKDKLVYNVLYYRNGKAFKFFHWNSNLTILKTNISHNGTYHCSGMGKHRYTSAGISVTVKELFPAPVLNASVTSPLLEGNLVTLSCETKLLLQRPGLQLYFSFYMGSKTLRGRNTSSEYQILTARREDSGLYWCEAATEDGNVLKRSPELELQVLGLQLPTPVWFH
row,Binder,He/Con_1a
1,B1,99.1 % of GpH7-A5/GpH7-B3/GpL16-k0
2,B2,106 % of GpH7-A5/GpH7-B3/GpL16-k0
3,B3,108 % of GpH7-A5/GpH7-B3/GpL16-k0
4,B4,109 % of GpH7-A5/GpH7-B3/GpL16-k0
5,B5,109 % of GpH7-A5/GpH7-B3/GpL16-k0
6,B6,107 % of GpH7-A5/GpH7-B3/GpL16-k0
7,B7,107 % of GpH7-A5/GpH7-B3/GpL16-k0
8,B8,109 % of GpH7-A5/GpH7-B3/GpL16-k0
9,B9,108 % of GpH7-A5/GpH7-B3/GpL16-k0
10,B10,109 % of GpH7-A5/GpH7-B3/GpL16-k0
11,B11,104 % of GpH7-A5/GpH7-B3/GpL16-k0
12,B12,98.8 % of GpH7-A5/GpH7-B3/GpL16-k0
13,B13,103 % of GpH7-A5/GpH7-B3/GpL16-k0
14,B14,104 % of GpH7-A5/GpH7-B3/GpL16-k0
15,B15,105 % of GpH7-A5/GpH7-B3/GpL16-k0
16,B16,102 % of GpH7-A5/GpH7-B3/GpL16-k0
17,B17,102 % of GpH7-A5/GpH7-B3/GpL16-k0
18,B18,121 % of GpH7-A5/GpH7-B3/GpL16-k0
19,B19,114 % of GpH7-A5/GpH7-B3/GpL16-k0
20,B20,113 % of GpH7-A5/GpH7-B3/GpL16-k0
21,B21,116 % of GpH7-A5/GpH7-B3/GpL16-k0
22,B22,112 % of GpH7-A5/GpH7-B3/GpL16-k0
23,B23,114 % of GpH7-A5/GpH7-B3/GpL16-k0
